The text below walks through data of article PMC5932101 (EJNMMI Radiopharmacy and Chemistry, 2018).

For series [1], the system named is mice bearing αvß3-positive U-87 MG tumors. The settings on record: mouse, in vivo; cited from earlier work. How it is done:
Table 1 Ex vivo biodistribution of [^68Ga]3 in mice bearing αvß3-positive U-87 MG tumors at 1 h p.i. along with blocking studies in comparison to [^68Ga]Ga-NODAGA-c(RGDfK) and [^68Ga]Ga-DOTA-c(RGDfK) (data taken from ref. Dumont et al. [2011]). Data are expressed as %IA g^− 1 and represent mean ± SD (n = 5) | column: [^68Ga]Ga-NODAGA-c(RGDfK) / 1 h; [^68Ga]Ga-DOTA-c(RGDfK) / 1 h || Biodistribution data for [^68Ga]3 are presented in Table 1. For comparison, equivalent data taken from the literature are also given for compounds [^68Ga]Ga-NODAGA-c(RGDfK) and [^68Ga]Ga-DOTA-c(RGDfK) (Dumont et al. [2011]). The primary difference between these three compounds is the change in chelator.

For series [2] the following is noted: cited from earlier work. An excerpt:
The radiolabelled conjugate [^68Ga]3 is highly hydrophilic with a log Doct/PBS value of − 3.89 ± 0.02.

In series [3] the test system is U-87 MG tumor bearing mice. Particulars: mouse, in vivo; cited from earlier work. On the procedure: In addition to the ex vivo biodistribution studies, the distribution profile of [^68Ga]3 was also assessed 1 h after administration by small-animal PET imaging. Corresponding transverse and coronal maximum intensity projections of [^68Ga]3 in αvß3 xenograft bearing mice along with blocking studies are given Fig. 2. The results of the biodistribution study were confirmed by PET imaging. The αvß3 positive U-87 MG tumors as well as the liver and the kidneys were clearly visible on the PET images. The tumor uptake of [^68Ga]3 was determined to 2.48 ± 0.14 %IA g^− 1. The differences in blood and ti ...

The nature of series [4]: in vivo. Also noted: species or system mice. The settings on record: female, athymic Balb/c nude, mouse, iv, total radioactivity. On the procedure: (§1) All animal experiments complied with the current laws of the Federal Republic of Germany and were conducted according to German Animal welfare guidelines. Normal female athymic Balb/c nude mice (17–20 g, 4–6 weeks old) were obtained from Janvier SAS (St. Berthevin Cedex, France). Mice were provided with food and water ad libitum. U-87 MG tumors were inoculated on the right shoulder by sub-cutaneous injection of 5×10^6 cells in a 100 μL cell suspension of a 1:1 v/v mixture of media with reconstituted basement membrane (GFR BD Matrigel™, Corning BV, Amsterdam, Holland).
For each compound, a total of five animals were injected with [^68Ga]3 (7–11 MBq) in 100 μL sterile filtered phosphate buffered saline via a tail vein. At 1 h p.i., animals were sacrificed by isoflurane anesthesia. Organs of interest were dissected, weighed and assayed for radioactivity in a gamma counter. The percent injected activity per gram (%IA g^− 1) for each tissue was calculated by comparison of the tissue counts to a standard sample prepared from the injectate.

Series [5] in a line: in vivo. Details: species or system mice. Particulars: female, athymic Balb/c nude, mouse, iv, total radioactivity. How it is done: as §1
For PET imaging studies, mice (n = 3) were injected with 100 μL sterile filtered phosphate buffered saline formulations pH 7.4 of [^68Ga]3 (7–11 MBq) by intravenous tail-vein injection and anesthetized with isoflurane (2–4% in air) 5–10 min prior image acquisition. PET imaging was performed on a Focus 120 microPET scanner at 1 h after administration. Data were acquired 1 h post administration in list mode. Reconstruction was performed using unweighted OSEM2D. Image analysis was performed using AMIDE. Image counts per second per voxel (cps/voxel) were calibrated to activity concentrations (Bq mL^− 1) by measuring a 3.5 cm cylinder phantom filled with a known concentration of radioactivity.
This is another data set of the same source.

As for “[^68Ga]Ga-NODAGA-c(RGDfK) (head to tail)”, in series [1], the Tumor-to-blood ratio is on record as 27.67 ± 7.01, the Tumor-to-kidney ratio is recorded as 2.64 ± 0.31, the Tumor-to-liver ratio is 2.75 ± 0.31 and the Tumor-to-muscle ratio is listed as 12.80 ± 5.25. The “log D” value in series [2] is “− 3.27 ± 0.01”. Besides, the “Tumor-to-background ratio (PET)” value in series [3] is given as 11.97.
The term tissue uptake denotes the percentage of the injected dose found per gram of tissue. Regarding `Cn1ccnc1CN1CCN(CC(=O)NCCCC[C@@H]2NC(=O)[C@@H](Cc3ccccc3)NC(=O)[C@H](CC(=O)O)NC(=O)CNC(=O)[C@H](CCCNC(=N)N)NC2=O)CCN(Cc2nccn2C)CC1` [[^68Ga]3, [^68Ga]Ga-NODIA-Me-c(RGDfK), metal not drawn], the tissue uptake at 1 h in “in vivo [4]” (Accumulation in all other organs (other than tumor, kidney, liver)) is below 1 %ID/g. Moreover, the tissue to tissue ratio at 1 h came to 3.91 ± 0.43 in the series “in vivo [4]” (Tumor-to-blood ratio); 1.27 ± 0.04 in the series “in vivo [4]” (Tumor-to-kidney ratio); 2.08 ± 0.18 in the series “in vivo [4]” (Tumor-to-liver ratio); 11.7 ± 0.29 in the series “in vivo [4]” (Tumor-to-muscle ratio); 6.76 in the series “in vivo [5]”.
Take [^68Ga]Ga-DOTA-c(RGDfK) (head to tail): in series [1], the Tumor-to-blood ratio is given as 9.24 ± 1.12, the Tumor-to-kidney ratio was 1.57 ± 0.14, the Tumor-to-liver ratio is 2.25 ± 0.37 and the Tumor-to-muscle ratio is 12.37 ± 1.81. In addition, the “log D” value in series [2] is listed as “− 2.86 ± 0.01”. Besides, the “Tumor-to-background ratio (PET)” value in series [3] is given as 3.28.
